Data on one substance can be found in patent US5434068.

In this series the test system is BglII restriction endonuclease (R.BglII) (Bacillus globigii). Kind of series: cleavage_in_vitro. The note with it: nonspecific nicking test; 80 units, 4 h, 37 C, 10 mM MgCl2.

For phiX174 RFI DNA, the activity (% converted to RFII) is 10.
